Measured values as given in patent publication US20230348852A1, “METHODS AND COMPOSITIONS FOR OCULAR CELL THERAPY” (NOVARTIS AG, priority 2020, published 2023).

How the values were obtained:
B2M = assay: Targeted PCR and NGS (amplicon sequencing) of on-target and off-target sites in genome-edited LSCs; type: cell-based, human; details: for Number of sites positive for off-target activity in LSCs: of the potential off-target loci sequenced; for B2M purified rhAmpSeq indel: purified (B2M negative) LSC populations
Experimental: Potential CRISPR/Cas9-mediated cutting sites identified above were evaluated using targeted PCR and NGS in genome-edited expanded LSCs.
Selected sgRNAs (SEQ ID NO: 120, 162, 166, 167, 171, and 175) were further analyzed by amplicon sequencing in edited and non-edited cells. Primers flanking the potential off-target sites for each guide were used to detect indels by NGS analysis in edited LSCs and non-edited peripheral blood mononuclear cells. Sites that had either (1) a difference in mean indel percentage between edited and unedited cells greater than 0.5%; or (2) a p value less than 0.05 between edited and unedited indel were further analyzed. NGS sequence reads for such sites were assessed for characteristic indel patterns near the putative Cas9 cut site. Based on the results, we could assess the specificity of gRNAs and their suitability for therapeutic applications.

human B2M = assay: CRISPR/Cas9-mediated deletion of B2M in HEK293 (lipofection, FACS); type: cell-based; details: lipofection of tracrRNA, gRNA and Cas9 mRNA; FACS after 72 h
Experimental: One day before transfection, 500′000 HEK293cells (ATCC, Manassas, VA) were plated in a 35 mm dish and grown in DMEM/10%FBS. The following day, cells were transfected with a mixture of tracrRNA-gRNA-Cas9 mRNA. A stock of 10 micromolar was prepared resuspending 20 nanomoles of gRNA and 20 nanomoles tracrRNA in 2000 microlitre 10 millimolar Tris buffer pH7.4 each.
The mixture was added drop wise to the culture dish in 2.5 ml DMEM/10%FBS medium. The transfection reagent alone represented the transfection negative control.
After 6 h incubation in 5% CO2 at 37° C. medium was replaced with fresh DMEM/10%FBS medium. After 72 h in a 5% CO2 incubator cells were prepared for FACS analysis. FACS analysis: HEK293 cells were treated with Accutase (ThermoFisher, Cat # A1110501) for 20 minutes in 5% CO2 at 37° C. The reaction was stopped by using cell culture medium containing 10% Serum and transferred to a falcon tube for a centrifugation step (1000 rpm, 5 minutes). After aspirating the medium cells were resuspended in 200 microlitre FACS buffer (PBS/10%FBS).
To analyze the expression of B2M and HLA-ABC, 5 microlitre APC mouse anti-human β2-microglobulin antibody (Biolegend, Cat #316312) and 20 microlitre PE mouse anti-human HLA-ABC antibody (BD Bioscience, Cat # 560168) were added to the cell suspension and incubated for 30 minutes on ice. Cells were washed 3 times after antibody labelling with FACS buffer and resuspended in 500 microlitre in FACS buffer.
Each sample was transferred to one well of a round bottom 96 well plate and analyzed on a BD LSRFortessa X-20 device. FACS data were analyzed using BD FACSDiva software.

CD8+ T-cells = assay: LSC/T-cell reaction assay; type: cell-based, human; details: B2M/HLA-Class I negative LSCs co-cultured 10 days with CD8+ T-cells from 4 donors
Experimental: An LSC/T-cell assay was performed in flat bottom 96well synthemax coated plates in duplicates and incubated in 5% CO2 at 37° C. for 10 days. RPMI-1640 supplemented with HEPES (100 µM), non-essential aas (10x), sodium pyruvate (10 mM), 2-Mercapthoethanol (10x), 10% FBS and 1% Penicillin-Streptomycin (Gibco by Life Technologies) was used as medium for co-culture. Alternatively, RPMI-1640 supplemented with HEPES (10 mM), non-essential aas (1x), sodium pyruvate (1 mM), 2-Mercapthoethanol (1x), 10% FBS and 1% Penicillin-Streptomycin (Gibco by Life Technologies) was used as medium for co-culture.
One day before co-culture, LSCs (stimulator cells) were passed and cultured to a confluency of around 70% (30′000 - 50′000 cells) and cultured with LSC medium including compound. On day two, peripheral blood mononuclear cells (PBMC) were separated using EDTA blood with the Ficoll-Paque method (GE Healthcare Life Sciences, cat #17-1440-03). […]
After 10 days, CD8+ cells were transferred to a U-bottomed 96-well plate and washed 3 times using autoMAC rinsing solution (Miltenyi Biotec, Cat #130-091-222) including MACS BSA stock solution (Miltenyi Biotec, Cat #130-091-376). Cells were measured on a BD LSRFortessa X-20. FACS data were analyzed using BD FACSDiva software and FlowJo software.

B1: 1-CR004366: gRNA targeting human B2M; targeting domain SEQ ID NO: 108; sgRNA SEQ ID NO: 120; from Dharmacon (nucleic acid)
guide: GAGUAGCGCGAGCACAGCUAGUUUUAGAGCUAGAAAUAGCAAGUUAAAAUAAGGCUAGUCCGUUAUCAACUUGAAAAAGUGGCACCGAGUCGGUGCUUUU
modifications: listed as RNA, chemistry not given here
notes: gRNA targeting human B2M; from Dharmacon
validated indels for off-target activity in LSCs (B2M; amplicon sequencing of potential off-target loci): zero
Number of sites positive for off-target activity in LSCs (B2M): 0 of 64
Number of sites positive for off-target activity in LSCs (B2M; listed as SEQ ID NO: 120): no predicted sites tested positive for off-target activity
B2M purified rhAmpSeq indel (B2M): 99.60±0.44%
B2M purified rhAmpSeq indel (B2M; listed as SEQ ID NO: 120): ~ 99%
B2M knockout efficiency in HEK293 (human B2M): 70%
T-cell immune response in co-culture with gene edited LSCs (CD8+ T-cells): almost completely eliminated
